Reference: patent CN116173202A (BEIJING DONGFANG BIOTECH CO LTD, dated 2023)
Read-outs that look alike come from different tables or passages of the source.

Assays:
Assay in all cases: cell-based or functional assay
[1] = target: T1, 人单核细胞白血病细胞(THP-1)表面LILRB4 (human, UniProt Q8NHJ6 22-448)
[2] = target: T1, 人单核细胞白血病细胞(THP-1)表面LILRB4; remark: listed apart in the source
[3] = target: T1, 人单核细胞白血病细胞(THP-1)表面LILRB4; remark: listed apart in the source

| IC50, 抑制THP-1分泌ARG1 (arginase activity in supernatant, ApoE 0.5μg/mL) [1] [µg/mL] | IC50, 抑制THP-1分泌ARG1 (arginase activity in supernatant, ApoE 0.5μg/mL) [2] [µg/mL] | IC50, 生物学活性检测(报告基因), THP-1-NF-κB-Luc cells with ApoE [3] [µg/mL] | Binder |
| --- | --- | --- | --- |
|  | 98.5 | 3.44 | 人源化抗体HA-Ⅲ (human IgG1 / human Ck) (antibody, V domains shown) VH: EVQLVESGGGLVKPGGSLRLSCAASGFTFSSYTMSWVRQAPGKGLEWVATISSGGTYTYYPDSVKGRFTISRDNAKNSLYLQMNSLRAEDTAVYYCTRDGYDGFDYWGQGTTVTVSS VL: DIVMTQTPLSLSVTPGQPASISCRSSQSLAHSNGNTYLHWYLQKPGQSPKLLIYKVSNRFSGVPDRFSGSGSGTDFTLKISRVEAEDVGVYFCSQSTHVPTFGGGTKVEIKR |
|  | 31.2 | 0.756 | 人源化抗体HA-Ⅰ (human IgG1 / human Ck) (antibody, V domains shown) VH: EVQLVESGGGLVKPGGSLRLSCAASGFTFSSYTMSWVRQAPGKGLEWVSTISSGGTYTYYPDSVKGRFTISRDNAKNSLYLQMNSLRAEDTAVYYCARDGYDGFDYWGQGTTVTVSS VL: DIVMTQTPLSLSVTPGQPASISCRSSQSLAHSNGNTYLHWYLQKPGQSPQLLIYKVSNRFSGVPDRFSGSGSGTDFTLKISRVEAEDVGVYYCSQSTHVPTFGGGTKVEIKR |

The next lines start with the binder.

| Binder | IC50, 抑制THP-1分泌ARG1 (arginase activity in supernatant, ApoE 0.5μg/mL) [1] [µg/mL] | IC50, 抑制THP-1分泌ARG1 (arginase activity in supernatant, ApoE 0.5μg/mL) [2] [µg/mL] | IC50, 生物学活性检测(报告基因), THP-1-NF-κB-Luc cells with ApoE [3] [µg/mL] |
| --- | --- | --- | --- |
| MA-Ⅰ 鼠源抗LILRB4单克隆抗体 (mouse IgG1 / mouse Ck) (antibody) heavy: not shown light: DIVMTQTTLSLPVSPGDQASISCRSSQSLAHSNGNTYLHWYLQKPGQSPKLLIYKVSNRFSGVPDRFSGSGSGTDFTLKISRVEAEDLGVYFCSQSTLVPTFGGGTKLEIKADAAPTVSIFPPSSEQLTSGGASVVCFLNNFYPKDINVKWKIDGSERQNGVLNSWTDQDSKDSTYSMSSTLTLTKDEYERHNSYTCEATHKTSTSPIVKSFNRNEC | 23.9 |  |  |
| 人源化抗体HA-Ⅱ (human IgG1 / human Ck) (antibody, V domains shown) VH: EVQLVESGGGLVKPGGSLRLSCAASGFTFSSYTMSWVRQAPGKGLEWVATISSGGTYTYYPDSVKGRFTISRDNAKNSLYLQMNSLRAEDTAVYYCARDGYDGFDYWGQGTTVTVSS VL: DIVMTQTPLSLSVTPGQPASISCRSSQSLAHSNGNTYLHWYLQKPGQSPQLLIYKVSNRFSGVPDRFSGSGSGTDFTLKISRVEAEDVGVYFCSQSTHVPTFGGGTKVEIKR |  | 250 | 2.68 |
| MB-Ⅰ 鼠源抗LILRB4单克隆抗体 (mouse IgG1 / mouse Ck) (antibody) heavy: QVQLQESGAELVKPGASVKLSCKASGYTFTNYWMHWVKQRPGQGLEWIGEINPSNGRTNYNEKFKTKATLTVDKSSSTAYMQLSSLTSEDSAVYYCARWGQLGLREGYYAVDYWGQGTSVTVSSAKTTPPSVYPLAPGSAAQTNSMVTLGCLVKGYFPEPVTVTWNSGSLSSGVHTFPAVLQSDLYTLSSSVTVPSSTWPSETVTCNVAHPASSTKVDKKIVPRDCGCKPCICTVPEVSSVFIFPPKPKDVLTITLTPKVTCVVVDISKDDPEVQFSWFVDDVEVHTAQTQPREEQFNSTFRSVSELPIMHQDWLNGKEFKCRVNSAAFPAPIEKTISKTKGRPKAPQVYTIPPPKEQMAKDKVSLTCMITDFFPEDITVEWQWNGQPAENYKNTQPIMDTDGSYFVYSKLNVQKSNWEAGNTFTCSVLHEGLHNHHTEKSLSHSPG light: DIVMTQSPSSLSASLGDRVTISCRASQDISNYLNWYQQKPDGTVKLLIYYTSRLHSGVPSRFSGSGSGTDYSLTISNLEQEDIATYFCQQGNTLPPTFGGGTKLEIKADAAPTVSIFPPSSEQLTSGGASVVCFLNNFYPKDINVKWKIDGSERQNGVLNSWTDQDSKDSTYSMSSTLTLTKDEYERHNSYTCEATHKTSTSPIVKSFNRNEC | 46 |  |  |
